In publication PMC4627090, “Slicer-independent mechanism drives small-RNA strand separation during human RISC assembly”:

Molecular target: recombinant human AGO2 (rhAGO2) (Homo sapiens, UniProt Q9UKV8 1-859)
Experiment: EMSA; 25 C; EMSA: 10 mM HEPES-KOH pH 7.4, 50 mM KCl, 1 mM DTT, 3% Ficoll-400, 0.1 mg/ml BSA, 10 nM RNA, 0-200 nM hAGO2, 30 min at 25 or 37 C, 6% native gel at 4 C; RISC assembly in HEK293T lysate at 0.75-3.75 mM Mg2+, 25 or 37 C
Settings: protein: recombinant; tags: N-terminal FLAG and His; label: 32P; single strand

recombinant human AGO2 (rhAGO2), sequence (Q9UKV8 whole entry): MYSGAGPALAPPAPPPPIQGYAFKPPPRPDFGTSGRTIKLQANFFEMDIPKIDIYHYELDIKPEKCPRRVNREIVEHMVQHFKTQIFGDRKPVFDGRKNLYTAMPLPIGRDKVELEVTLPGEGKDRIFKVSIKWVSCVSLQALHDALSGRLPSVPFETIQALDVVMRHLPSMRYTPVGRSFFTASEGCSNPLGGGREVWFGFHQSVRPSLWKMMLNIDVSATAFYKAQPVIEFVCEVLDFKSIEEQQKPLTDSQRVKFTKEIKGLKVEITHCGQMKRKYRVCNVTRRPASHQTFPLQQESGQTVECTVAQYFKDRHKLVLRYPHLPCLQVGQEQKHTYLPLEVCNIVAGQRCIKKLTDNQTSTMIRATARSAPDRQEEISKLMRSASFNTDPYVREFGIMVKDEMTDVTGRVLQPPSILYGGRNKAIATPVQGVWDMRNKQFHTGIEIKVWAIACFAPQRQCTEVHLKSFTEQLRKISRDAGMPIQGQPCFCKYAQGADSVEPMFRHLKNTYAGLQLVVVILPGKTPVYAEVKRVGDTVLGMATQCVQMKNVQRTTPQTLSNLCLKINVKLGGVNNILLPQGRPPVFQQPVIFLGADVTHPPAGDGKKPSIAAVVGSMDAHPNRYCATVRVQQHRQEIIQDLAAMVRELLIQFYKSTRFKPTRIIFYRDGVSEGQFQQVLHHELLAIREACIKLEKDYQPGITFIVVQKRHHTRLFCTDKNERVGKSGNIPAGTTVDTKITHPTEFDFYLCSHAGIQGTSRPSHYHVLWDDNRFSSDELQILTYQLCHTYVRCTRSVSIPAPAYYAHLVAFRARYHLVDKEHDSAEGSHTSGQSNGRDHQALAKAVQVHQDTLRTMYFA

UGGAAUGUAAAGAAGUAUGUA (ssRNA) [miR-1 guide ssRNA]
Kd: ~44.4 nM
